According to the supplement of paper PMC9170038:

Tests used:
[1] = test system: MS2 coat protein; experiment: apparent KD of MS2 coat protein, switch ON state; designed switch direction (-1 OFF switch, 1 ON switch): 1; higher = weaker reporter binding; conditions: FMN input: 0 or 200 uM; Eterna round: R93 (includes R88 designs)
How it was run: (§1)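 Apparent KD is reported per design as the median of normalised binding-curve fits across its clusters. The RNA switches were made by on-chip transcription from Illumina sequencing clusters. SNAP-549-labelled MS2 coat protein was then added in twofold steps (0.7 or 1.5 nM to 3 µM; 0.8–1.5 h to 10–20 min per step) in 100 mM Tris-HCl pH 7.5, 80 mM KCl, 4 mM MgCl2, without or with constant ligand.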

[2] = test system: MS2 coat protein; experiment: apparent KD of MS2 coat protein, switch OFF state (with FMN for OFF switches, without FMN for ON switches); designed switch direction (-1 OFF switch, 1 ON switch): 1; higher = weaker reporter binding; conditions: FMN input: 0 or 200 uM; Eterna round: R93 (includes R88 designs)
How it was run: as §1

| Sequence | apparent KD of MS2 coat protein [1] | apparent KD of MS2 coat protein [2] |
| --- | --- | --- |
| GAAAAACAUGAGGAUCACCCAUGUACAAAUAUGGAAGGAUAUACGAUGACGAAAGUCAAAGUAGAAGGUCUAAAAG [Garnet 98] | 20.9 nM | 25.4 nM |
| CAGCGCUGUCGAGAGGAUAUGCGGUGAAGGACAUGAGGAUCACCCAUGUAAGCGAUAGCAUUACGGUAGAAGGCUCUGCAGCUGC [Ceriso] | 95.7 nM | 143 nM |
| AACAAUCUAUCUGAGGAUAUCAUGUCAAAGACAUGAGGAUCACCCAUGUCCAGGAAAACUGGUCAUGAGAAGGCAGAUAGAUUGA [SS2: 1111] | 51.3 nM | 887 nM |
| AAAAUACAUGAGGAUCACCCAUGUGAAAAUAUGGGAGGAUAUACGAAAAAUAAAUAAAACGUAGAAGGCCUAAAAA [SS! 1 MT 2] | 22.2 nM | 165 nM |
| GACCGGGACGCGUAGGAUAUGUAGUGCGCUACAUGAGGAUCACCCAUGUGCGAGACUUCAAAAGAGCAGAAGGGUGUGUGCCCGG [Xegeedri] | 40.2 nM | 65.8 nM |
| AAGAAACAUGAGGAUCACCCAUGUAAAAAUAUGGGAGGAUAUGCGAAAAGAAACAAAGAAGCAGAAGGCCUAAGAA [75%, Ex5 sub 1, 6] | 15.9 nM | 51.1 nM |
| GAAAAACAUGAGGAUCACCCAUGUAGAAAUAUGGGAGGAUAUACAAAGACGAAAGUCAAAGUAGAAGGCCUGAGAA [Mat - Same State 1 - Eli mod - 83] | 21 nM | 103 nM |
| AACAAUCUAUCUGAGGAUAUGUGUCGAAAGACAUGAGGAUCACCCAUGUGAAAACAUGAAAAAACACAGAAGGCAGAUAGAUUGA [SS2: 1147] | 33.6 nM | 70.6 nM |
| GGGAGGAAGAGAGAGGAUAUCCAAAGGAAAACAUGAGGAUCACCCAUGUAAAAGGUAGGAAAUUGGGAGAAGGCUCAAGAGAUGG [salish99-ss2-052] | 59 nM | 39.2 nM |
| CGAAGACAUGAGGAUCACCCAUGUGGGAUUAUGGGAGGAUAUACAAAGACGAGAGUCAGAGUAGAAGGCCUAGGAU [salish99-ss1-125(!)] | 22.4 nM | 47.8 nM |
| CUGGACCUAGGAUAGGAUAUGUGAAUAAUUACAUGAGGAUCACCCAUGUCCAUUUAUAUGGGAACAUAGAAGGGUUUUGGUUAAG [Mat - Same state - Malcolm Mod - D147] | 103 nM | 164 nM |
| AAACAGAUAGGACAGGAUAUGUCGUGAUAAACAUGAGGAUCACCCAUGUGAGACAUCACGUAAUCGCAGAAGGGUCCUGUCUUAC [Aquditiri] | 16.3 nM | 15.6 nM |
| AAAAAAAGAUCACAGGAUAUACGAAAAAAAACAUGAGGAUCACCCAUGUAAAAAAAAAAAAAAAAGUAGAAGGGUGAUCCAAAAAA | 28.5 nM | 11 nM |
| CGGCAAGAGAGAGAGGAUAUCCAAAGGAAAACAUGAGGAUCACCCAUGUAGAAGGUAGGAAAUUGGGAGAAGGCUCAAGAGAGAG [salish99-ss2-135] | 23.2 nM | 18.4 nM |
| AAAUAAAUGACUAAGGAUAUUUCAGAGAAAACAUGAGGAUCACCCAUGUAAUAAUAAAAAGGGUGAAAGAAGGUAGUCAACAAAC [74%, More Paria 4] | 17.1 nM | 41 nM |
| AUAAAAGAAAGGCAGGAUAUCCAAAGAAAAACAUGAGGAUCACCCAUGUAAAGAAAGAAAAAGUGGGAGAAGGGCCAAAAGAAUA [73%, More Fisker Same State 2, D3, 3] | 25.3 nM | 27.6 nM |
| CAUAGACAUGAGGAUCACCCAUGUAGAAUUAUGGGAGGAUAUACAAAGACGAGAGUCAGAGUAGAAGGCCUAGGAC [salish99-ss1-164] | 18.9 nM | 28.3 nM |
| AAGAAACAUGAGGAUCACCCAUGUACCCAAAAGGGAGGAUAUCCGAAAGAAAGAAAGAAAGGAGAAGGCCCAUGAA [Xerxes II] | 12.6 nM | 34.2 nM |
| GUGGUGUAGGUACAGGAUAUGUUGCUCGUAACAUGAGGAUCACCCAUGUACCUAUGAGAUUAAAUGCAGAAGGGUGCACACCACG [Alage] | 37.3 nM | 118 nM |
| AGAUCUAGAAGGUAGGAUAUGUGUAAAAAUACAUGAGGAUCACCCAUGUGAUGAAUAAAAAGAAAAUAGAAGGACCAUCUAGAUC [Cross swing 3] | 16.8 nM | 119 nM |
